Data: patent US10920201B2, “Rice EPSPS mutant, encoding gene and use thereof” (GEVOTO LLC, priority 2016, dated 2021)

Legend:
[1] = system: EDCE (E. coli DH5a with EPSPS gene and C-P Lyase gene being knocked out); experiment: Glyphosate resistance of transformed E. coli in liquid screening culture media (growth saturation index); format: cell-based; set-up: key to Growth Saturation Index: saturation index=0, no growth; saturation index=1, little growth; saturation index=2, half-saturated growth; saturation index=3, flourishing growth, but still having room to grow; saturation index=4, rapid growth, the bacteria having reached a highest (saturated) concentration in the culture media or the growth having reached the limit
Description: 1.6 A double knockout E. coli was transformed (E. Coli DH5a with EPSPS gene and C-P Lyase gene being knocked out, named as EDCE, wherein for a preparation method thereof, reference can be made to a Chinese invention patent with the filing number CN2016103256926, entitled “Method for Screening Glyphosate-resistant Gene, EPSPS Mutant Gene, Defect Strain and Application Thereof”).
In the above, the screening culture media were culture media obtained by adding antibiotic, Spec (Spectinomycin), Gen (Gentamycin), Amp (Ampicillin) of certain concentrations and glyphosate of different concentrations, with M9 as a basic medium. Basic components of the M9 culture medium were as follows: Na2HPO4 13˜14 g/L, KH2PO4 5.7˜6.3 g/L, NaCl 0.9˜1.1 g/L, NH4Cl 1.8˜2.2 g/L, glucose 37˜43 g/L, MgSO4˜7H2O 48˜52 g/L, and CaCl2) 21˜23 g/L.
In the present example, EDCE transformed by the wild-type rice EPSPS gene (named as OsE gene, SEQ ID NO. 3) was taken as a control group, and the monoclonal resistant bacterium containing the OsEM gene (SEQ ID NO. 2) obtained in step 3.1 of Example 1 was taken as an experiment group, to detect the glyphosate resistance of the OsEM gene in bacteria.
The control group and the experiment group were respectively inoculated into culture media (screening culture media) containing glyphosate concentrations of 0 mM, 5 mM, 10 mM, 20 mM, 50 mM, 75 mM, and 100 mM, to observe growth states of bacterial colony in each group, denoted by growth saturation index (saturation index=0, no growth; saturation index=1, little growth; saturation index=2, half-saturated growth; saturation index=3, flourishing growth, but still having room to grow; saturation index=4, rapid growth, the bacteria having reached a highest (saturated) concentration in the culture media or the growth having reached the limit).

[2] = system: EPSPS and C-P Lyase deficient E. coli; experiment: Growth of transformed E. coli on solid culture media containing glyphosate (FIG. 4); format: cell-based; conditions: solid culture medium
Experimental: Besides, the glyphosate-resistant CP4-EPSPS gene mostly widely used currently in genetically modified crops in agriculture was further used in the present example as positive control, and E. coli respectively transformed by OsE gene (negative control group), OsEM gene (experiment group) and CP4-EPSPS gene (positive control group) were inoculated onto solid culture media respectively containing glyphosate of concentration of 0 mM, 1 mM, 50 mM, 100 mM, to observe growth states of bacterial colony in each group.

soybean plants = experiment: Glyphosate spray test on soybean plants transformed with OsEM gene; format: in vivo
Description: In the present example, wild-type soybean plants were taken as controls, the positive soybean plants transformed with OsEM gene obtained in Example 4 were taken as experiment group, to verify glyphosate resistance of OsEM gene in plants. An experiment method is as follows:
1 The OsEM transformed positive soybean plants 10-20 cm tall and 3 wild-type soybean plants with a similar size were numbered and then randomly arranged in an experiment area (preventing leaves from overlapping).
2 The area with the plants was measured, and glyphosate was sprayed at a dosage of 1060 g/hectare (0.106 g/m^2).
3 Commercially available Roundup® 41% ammonium glyphosate was used. Amount was calculated according to the experiment area and dosage of 0.106 g/m^2, then diluted 20 times with water, and uniformly sprayed on the plants in the experiment area.
4 After leaf surfaces were dry, the plants in the experiment group and the control group were moved into a greenhouse.
5 Growth states of the plants were evaluated and recorded.
Afterwards, plants grew well were transplanted to larger pots to grow, and the glyphosate (having a concentration of […]) was sprayed for a second time on a 21st day. After 2 weeks, the growth states of the plants in each group were captured and recorded.

[3] = 7th day after first glyphosate spray, 1060 g/hectare (0.106 g/m^2)

B1: OsEM: Rice EPSPS mutant gene (SEQ ID NO. 2) encoding 5-enolpyruvylshikimate-3-phosphate synthase mutant (SEQ ID NO. 1), 8 amino acid mutations (protein)
chain: MASNAAAAAAKAEEIVLQPIREISGAVQLPGSKSLSNRILLLSALSEGTTVVDNLLNSEDVHYMLEALKGLGLSVEADKVAKRAVVVGCGGKFPVEKDAKEEVQLFLGNAATAMRSLTAAVTAAGGNATYVLDGVPRMRERPIGDLVVGLKRLGADVDCFLGTECPPVRVKGIGGLPGGKVKLSGSISSQYLSALLMAAPLALGDVEIEIIDRLISIPYVEMTLRLMERFGVKAEHSDSWDRFYIKGGQQYESPGNAYVEGDASSASYFLAGAAITGGTVTVQGCGTTSLQGDVKFAEVLEMMGAKVTWTDTSVTVTGPPREPYGKKHLKAVDVNMNKMPDAAMTLAVVALFADGPTAIRDVASWRVKETERMVAIRTELTKLGASVEEGPDYCIITPPEKLNITAIDTYDDHRMAMAFSLAACADVPVTIRDPGCTRKTFPNYFDVLSTFVRN
Growth Saturation Index ([1]; 0 mM glyphosate in culture medium): 4
Growth Saturation Index ([1]; 5 mM glyphosate in culture medium): 4
Growth Saturation Index ([1]; 10 mM glyphosate in culture medium): 4
Growth Saturation Index ([1]; 20 mM glyphosate in culture medium): 4
Growth Saturation Index ([1]; 50 mM glyphosate in culture medium): 4
Growth Saturation Index ([1]; 75 mM glyphosate in culture medium): 4
Growth Saturation Index ([1]; 100 mM glyphosate in culture medium): 4
glyphosate concentration to which resistance is endowed ([1]; E. coli transformed by the gene): 100 mM
growth state of bacterial colony ([2]; 0 mM glyphosate): could grow normally
growth state of bacterial colony ([2]; 1 mM glyphosate): could grow normally
growth state of bacterial colony ([2]; 50 mM glyphosate): could grow normally
growth state of bacterial colony ([2]; 100 mM glyphosate): could grow normally
growth state of plants after second glyphosate spray (FIG. 7) (soybean plants; 1.06 g/m^2 glyphosate sprayed on 21st day, recorded after 2 weeks): could grow continuously
number of plants with Growth State + (low glyphosate resistance) (soybean plants; [3]): 3
number of plants with Growth State ++ (medium glyphosate resistance) (soybean plants; [3]): 1
number of plants with Growth State +++ (high glyphosate resistance) (soybean plants; [3]): 4
number of plants with Growth State − (no glyphosate resistance) (soybean plants; [3]): 2
glyphosate concentration to which resistance is endowed (soybean plants; soybean plants transformed by the gene): 1.06 g/m^2
